Laboratory results from the RNAGym collection of RNA variant scans (doi:10.1073/pnas.2313332121).
This sample holds only a part of the variants without activity.

B1: TPR 5TU (parent)
chain: GGAUCUUCUCGAUCUAACAAAAAAGACAAAUCUGCCACAAAGCUUGAGAGCAUCUUCGGAUGCAGAGGCGGCAGCCUUCGGUGGCGCGAUAGCGCCAACGUUCUCAACUAUGACACGCAAAACGCGUGCUCCGUUGAAUGGAGUUUAUCAUG

Variants of: B1
Experiment: polymerase ribozyme fitness, log enrichment relative to wild type (log ratio); higher = more active; in vitro selection for triplet polymerase activity
In short: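 Mutant libraries were PCR-built and transcribed for each subunit of a heterodimeric triplet polymerase ribozyme and selected for one round in triplicate at −7 °C, frozen, before gel excision of extended constructs and streptavidin-bead capture. Input and output libraries were Illumina-sequenced, keeping genotypes with ≥10 input reads and ≥1 read per output. Fitness is a logarithmic ratio of genotype to wild-type enrichment, in base 2, using inverse-variance-weighted replicate averages.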

Variant | polymerase ribozyme fitness (log ratio)
GGAUCUUCUCGAUCUAACAAAAAAGACAAAUCUGCCACAAAGCUUGAGAGCAUCUUCGGAUGCAGAGGCGGCAGCUUUCGGUGGCACGAUAGCGCCAACGUUCUCAACUAUGACACGCAAAACGCGUGCUCCGUUGAAUGGAGUUUAUCAUG | -0.246
GGAUCUUCUCGAUCUAACAAAAAAGACAAAUCUGCCACAAAGCUUGAGAGCAUCUUCGGAUGCAGAGGCGGCAGCUUUCGGUGGCGUGAUAGCGCCAACGUUCUCAACUAUGACACGCAAAACGCGUGCUCCGUUGAAUGGAGUUUAUCAUG | -0.242
GGAUCUUCUCGAUCUAACAAAAAAGACAAAUCUGCCACAAAGCUUGAGAGCAUCUUCGGAUGCAGAGGCGGCAGCUUUCGGUGGCGCGAUAGCGCCAAGGUUCUCAACUAUGACACGCAAAACGCGUGCUCCGUUGAAUGGAGUUUAUCAUG | -0.789
GGAUCUUCUCGAUCUAACAAAAAAGACAAAUCUGCCACAAAGCUUGAGAGCAUCUUCGGAUGCAGAGGCGGCAGCUUUCGGUGGCGCGAUAGUGCCAACGUUCUUAACUAUGACACGCAAAACGCGUGCUCCGUUGAAUGGAGUUUAUCAUG | -0.938
GGAUCUUCUCGAUCUAACAAAAAAGACAAAUCUGCCACAAAGCUUGAGAGCAUCUUCGGAUGCAGAGGCGGCAGCUUUCGGUGGCGCGAUAGCGCCAACGUUCUCAACUAUGACACGCAAAACGCGUGCUCCGUUGAAGGGAGUUUAUCAUG | -0.649
GGAUCUUCUCGAUCUAACAAAAAAGACAAAUCUGCCACAAAGCUUGAGAGCAUCUUCGGAUGCAGAGGCGGCAGCUUACGGUGGCGCGAUAGCGCCAACGUUCUCAUCUAUGACACGCAAAACGCAUGCUCCGUUGAAUGGAGUUUAUCAUG | ≤ -4.2
GGAUCUUCUCGAUCUAACAAAAAAGACAAAUCUGCCACAAAGCUUGAGAGCAUCUUCGGAUGCAGAGGCGGCAGCUUUCGGUGGCGCGAUAGUGCCUACGUUCUCAACUAUGACACGCAAAACGCGUGCUCCGUUGAAUGGAGUUUAUCAUG | -0.802
GGAUCUUCUCGAUCUAACAAAAAAGACAAAUCUGCCACAAAGCUUGAGAGCAUCUUCGGAUGCAGAGGCGGCAGCCAUCGGUGGCGCUAUAGCGCCAACGUUGUCAACUAUGACACGCAAAACGCGUGCUCCGUUGAAUGGAGUUUAUCACG | ≤ -4.2
GGAUCUUCUCGAUCUAACAAAAAAGACAAAUCUGCCACAAAGCUUGAGAGCAUCUUCGGAUGCAGAGGCGGCAGCUUUCGGUCGCGCGAUAGCGCCAACGUUCUCAACUAUGACACGUAAAACGCGUGCUCCGUUGAAUGGAGUUUAUCAUG | -0.363
GGAUCUUCUCGAUCUAACAAAAAAGACAAAUCUGCCACAAAGCUUGAGAGCAUCUUCGGAUGCAGAGGCGGCAGCCGUCGGUGGCGCGAUAUCGCCAACGUUCUCAACUAUGACACGCAAAACGCGUGCUCCGUUGAAUGGAGUUUAUCAUG | -3.92
GGAUCUUCUCGAUCUAACAAAAAAGACAAAUCUGCCACAAAGCUUGAGAGCAUCUUCGGAUGCAGAGGCGGCAGCUUCCGGUGGCGCGAUAGCGCCAACGUUCUCCACUAUGACACGCAAAACGCGUGCUCCGUUGAAUGGAGUUUAUCAUG | -1.92
GGAUCUUCUCGAUCUAACAAAAAAGACAAAUCUGCCACAAAGCUUGAGAGCAUCUUCGGAUGCAGAGGCGGCAGCUUUCGGUGGCGCGAUAGUGCCAACGUUCUCAACUAUGACACGCAAAACGCGUGCUCCGUUGAAUGGAGUUUAUCAUG | -2.28
GGAUCUUCUCGAUCUAACAAAAAAGACAAAUCUGCCACAAAGCUUGAGAGCAUCUUCGGAUGCAGAGGCGGCAGCCCUCGGUGGCGCGAUAGCGUCAACGUUCUCAACUAUGACACGCAAAACGCGUGCUCCGUUGAAUGAAGUUUAUCAUG | ≤ -4.2
GGAUCUUCUCGAUCUAACAAAAAAGACAAAUCUGCCACAAAGCUUGAGAGCAUCUUCGGAUGCAGAGGCGGCAGCCGUCGGUGGCGCGCUAGCGCCAACGUUCCCAACUAUGACACGCAAAACGCGUGCUCCGUUGAAUGGAGUUUAUCAUG | ≤ -4.2
GGAUCUUCUCGAUCUAACAAAAAAGACAAAUCUGCCACAAAGCUUGAGAGCAUCUUCGGAUGCAGAGGCGGCAGCUUUCGGUGGCGCGAUAGCGCCAACGUUCUCAACUAUGACAGGCAAAACGCGUGCUCCGUUGAAUGGAGUUUAUCAUG | 0.541
GGAUCUUCUCGAUCUAACAAAAAAGACAAAUCUGCCACAAAGCUUGAGAGCAUCUUCGGAUGCAGAGGCGGCAGCCGUGGGUCGCGCGAUAGCGCCAACGUUCUCAACUAUGACACGCAAAACGCGUGCUCCGUUGAAUGGAGUUUAUCAUG | ≤ -4.2
GGAUCUUCUCGAUCUAACAAAAAAGACAAAUCUGCCACAAAGCUUGAGAGCAUCUUCGGAUGCAGAGGCGGCAGCCAUCGGUGGCACGAUAGCGCCAACGUUCUCAACUAUGACAGGCAACACGCGUGCUCCGUUGAAUGGAGUUUAUCAUG | ≤ -4.2
GGAUCUUCUCGAUCUAACAAAAAAGACAAAUCUGCCACAAAGCUUGAGAGCAUCUUCGGAUGCAGAGGCGGCAGCCUACGGUGGCGCGAUUGCGCCAACGUUCUCAACUAUGACACGCAAAACGCGUGCUCCGUUGACUGGAGUUUAUCAUG | ≤ -4.2
GGAUCUUCUCGAUCUAACAAAAAAGACAAAUCUGCCACAAAGCUUGAGAGCAUCUUCGGAUGCAGAGGCGGCAGCUUUCGGUGGCGUGAUAGCGCCAACGUCCUCAACUAUGACACGCAAAACGCGUGCUCCGUUGAAUGGAGUUUAUCAUG | -1.82

Variant | polymerase ribozyme fitness (log ratio)
GGAUCUUCUCGAUCUAACAAAAAAGACAAAUCUGCCACAAAGCUUGAGAGCAUCUUCGGAUGCAGAGGCGGCAGCCCUUGGUGGCGCGAUAGCGCCAACGUUCUCAACUAUGACACGCAAAACGCGUGCUCAGUUGAAUGGAGUUUAUCAUG | ≤ -4.2
GGAUCUUCUCGAUCUAACAAAAAAGACAAAUCUGCCACAAAGCUUGAGAGCAUCUUCGGAUGCAGAGGCGGCAGCUUUCGGUGGCGCGAUAGCGCCAACGUUCUCAACUAUGACACGAAAAACGCGUGCUCCGUUGAAUGGAGUUUAUCAUG | -2.21
GGAUCUUCUCGAUCUAACAAAAAAGACAAAUCUGCCACAAAGCUUGAGAGCAUCUUCGGAUGCAGAGGCGGCAGCCAUCGGUGGCGCGAUAGCCCCAUCGUUCUCAACUAUGACACGCAAAACGCGUGCUCCGUUGAAUGGAGUUUAUCAUG | ≤ -4.2
GGAUCUUCUCGAUCUAACAAAAAAGACAAAUCUGCCACAAAGCUUGAGAGCAUCUUCGGAUGCAGAGGCGGCAGCCCUCGGUGGCGCGAUAGCGCCAACGUUCUCAACUAUGACAUGCAAAACGCGUGCUCCGUUGAAUGGAGUUUAUCAUG | -3.64
GGAUCUUCUCGAUCUAACAAAAAAGACAAAUCUGCCACAAAGCUUGAGAGCAUCUUCGGAUGCAGAGGCGGCAGCCGUCGGUGCCGCGAUAGCGCCAACGUUCUCAACUAUGACACGCAAAACGCGUGCUCCGUUGAAUGGAGUUUAGCAUG | ≤ -4.2
GGAUCUUCUCGAUCUAACAAAAAAGACAAAUCUGCCACAAAGCUUGAGAGCAUCUUCGGAUGCAGAGGCGGCAGCUUUCGGUGGCGCGAUAGGGCCAACGUUCUCAACUAUGACACGCAAAACACGUGCUCAGUUGAAUGGAGUUUAUCAUG | ≤ -4.2
GGAUCUUCUCGAUCUAACAAAAAAGACAAAUCUGCCACAAAGCUUGAGAGCAUCUUCGGAUGCAGAGGCGGCAGCCGUCGGUGACGCGAUAGCGCCAACGUUCUCAACUAUGACACUCAAAACGCGUGCUCCGUGGAAUGGAGUUUAUCAUG | ≤ -4.2
GGAUCUUCUCGAUCUAACAAAAAAGACAAAUCUGCCACAAAGCUUGAGAGCAUCUUCGGAUGCAGAGGCGGCAGCUUUCGGUGGCGCGAUAGCGCCAACGUUCUCAACUAUGACACGCAAAACGCGUGCUCCGUUGAAUGGAGAUUAUCAUG | -1.08
GGAUCUUCUCGAUCUAACAAAAAAGACAAAUCUGCCACAAAGCUUGAGAGCAUCUUCGGAUGCAGAGGCGGCAGCUUUCGGUGGCGCGAUAGCGCAAACGUUCUCAACUAUGACACGCAAAACGCGUGCUCCGUUGAAUGGAGUUUAUCAUG | 0.322
GGAUCUUCUCGAUCUAACAAAAAAGACAAAUCUGCCACAAAGCUUGAGAGCAUCUUCGGAUGCAGAGGCGGCAGCUUUCGGUGGCGCGAUAGCGUCAACGUUCUCAACUAUGACACGCAAAACGCGUGCUCCGUCGAAUGGAGUUUAUAAUG | ≤ -4.2
GGAUCUUCUCGAUCUAACAAAAAAGACAAAUCUGCCACAAAGCUUGAGAGCAUCUUCGGAUGCAGAGGCGGCAGCCAUCGGUGGCGCGAUAGCGCCAACGUUCUCAACUAUGACACGCAAAACGCGUGCUCCGGUGAAUGGAGUUUAUCAUG | ≤ -4.2
GGAUCUUCUCGAUCUAACAAAAAAGACAAAUCUGCCACAAAGCUUGAGAGCAUCUUCGGAUGCAGAGGCGGCAGCCGUCGGUGACGCGAUAGCGCCAACGUUCUCAACUAUGACACGCAAAACGCGUGCUCCGUUGAAUGGAGUUUAUCAUG | ≤ -4.2
GGAUCUUCUCGAUCUAACAAAAAAGACAAAUCUGCCACAAAGCUUGAGAGCAUCUUCGGAUGCAGAGGCGGCAGCCAUCGGUGGCGCGAUAGCGUCAACGUUCUCAACUAUGACACGCAAAACGCGUGCUCCGUUGAAUGGAGUUUAUCAUG | ≤ -4.2
GGAUCUUCUCGAUCUAACAAAAAAGACAAAUCUGCCACAAAGCUUGAGAGCAUCUUCGGAUGCAGAGGCGGCAGCCAUCGGUGGCGCGAUAGCACCAACGUUCUCAACUAUGACACGCAAAACGCGUGCUCCGUUGAAUAGAGUUUAUCAUG | ≤ -4.2
GGAUCUUCUCGAUCUAACAAAAAAGACAAAUCUGCCACAAAGCUUGAGAGCAUCUUCGGAUGCAGAGGCGGCAGCUUUCGGUGGCGUGAUAGCGCCAACGUUCUCAACUAUGACAAGCAAAUCGCGUGCUCCGUUGAAUGGAGUUGAUCAUG | -3.7
GGAUCUUCUCGAUCUAACAAAAAAGACAAAUCUGCCACAAAGCUUGAGAGCAUCUUCGGAUGCAGAGGCGGCAGCUGUCGUUGGCGCGAUAACGCCAACGUUCUCAACUAUGACACGCAAAAAGCGUGCUCCGUUGAAUGGAGUUUAUCAUG | ≤ -4.2
GGAUCUUCUCGAUCUAACAAAAAAGACAAAUCUGCCACAAAGCUUGAGAGCAUCUUCGGAUGCAGAGGCGGCAGCUUUCGGUUUCGCGAUAGCGCCAACGUUCUCAACUAUGACACGCAAAAUGCGUGCUCCGUUGAAUGGAGUUUAUCAUG | -2.49
GGAUCUUCUCGAUCUAACAAAAAAGACAAAUCUGCCACAAAGCUUGAGAGCAUCUUCGGAUGCAGAGGCGGCAGCUUUCGGUGGCGCGAUAGCGCCAACGAUCUCAACUAUGACACGCAAAACGCGUGCUCCGUUGAAUGGAGUUUAUCAUG | -1.35
GGAUCUUCUCGAUCUAACAAAAAAGACAAAUCUGCCACAAAGCUUGAGAGCAUCUUCGGAUGCAGAGGCGGCAGCCAUCGGUGGCGCGAUAUCGCCAAGGUUCUCAACUAUGACACGCAAAACGCGUGCUCCGUUGAAUGGAGUUUAUCAUG | -4.06
